Results: publication PMC3031960 (Journal of immunology (Baltimore, Md. : 1950), 2010)
Numbered stars: 1 amine (or outer) side, 2 acyl side, 3 side chain; on linkers, the order of the positions; unused ones are H or OH. Square brackets hold non-standard residues; d marks the D form. Ends that are not written are not given here. K(Palm) = CCCCCCCCCCCCCCCC(=O)NCCCC[C@H](N[*:1])C(=O)[*:2]; pY = N[C@@H](Cc1ccc(OP(=O)(O)O)cc1)C(=O)O

Biological target: T1, pJAK2(1001–1013)
T1 peptide: {K(Palm)}-LPQDKE[pY]YKVKEP
Experiment: ELISA

B1: SOCS1-KIR (peptide)
peptide: {K(Palm)}-DTHFRTFRSHSDYRRI
Does B1 bind?
Result: binds

B2: SOCS3-KIR (peptide)
peptide: {K(Palm)}-LRLKTFSSKSEYQLVV
Does B2 bind?
Result: binds
